Legend:
IGF receptors = IGF receptors (Homo sapiens, UniProt P08069); assay: Competition binding of refolded IGF fusion proteins to IGF receptors against radioactive wild type IGF (Example 2); details: refolded 3 hours at room temperature, read-out: approximate binding constants (KDs)
Method: 2 ml of each of the original Ni eluates from Example 1 was mixed with about an equal volume of 100 mM glycine, 6 M urea, pH 9.5, concentrated by ultrafiltration in a CENTRICON 3 kDa filter unit, then brought up again in that buffer and concentrated to about 420 ul. Then they were diluted to 2 mg/ml for 403IGF, 764IGF, and 765IGF, and 4 mg/ml for 784IGF and 2.4 mg/ml for 785IGF.
200 ul of each of these was mixed rapidly with 1.8 ml of refold buffer. Refold buffer was 1.4 M urea, 100 mM glycine, 0.5 M NaCl, 19% ethanol, 0.5 mM GSSG, 4 mM GSH, pH 9.5. They were refolded at room temperature for 3 hours, and then tested in a binding assay for competition binding to IGF receptors against […] radioactive wild type IGF (Perkin Elmer, Inc.) For comparison, commercial Long-R3-IGF (LR3IGF) was also tested.

[1] = system: soluble IGF binding proteins; details: compared to wild-type IGF-1; Francis 1992, Tomas 1993, U.S. Pat. No. 4,876,242; cited from earlier work
[2] = target: T1, type 1 IGF receptors (IGF-1R) on MCF7 cells (Homo sapiens, UniProt P08069); assay: Competition binding assay to IGF-1 receptor on MCF7 cells versus I-125-labeled IGF-1; details: FIG. 1 assay
T1 construct: type 1 IGF receptors that are abundant on MCF7 cells; host or cells: MCF7
T1 sequence (P08069 31-736 limits assumed): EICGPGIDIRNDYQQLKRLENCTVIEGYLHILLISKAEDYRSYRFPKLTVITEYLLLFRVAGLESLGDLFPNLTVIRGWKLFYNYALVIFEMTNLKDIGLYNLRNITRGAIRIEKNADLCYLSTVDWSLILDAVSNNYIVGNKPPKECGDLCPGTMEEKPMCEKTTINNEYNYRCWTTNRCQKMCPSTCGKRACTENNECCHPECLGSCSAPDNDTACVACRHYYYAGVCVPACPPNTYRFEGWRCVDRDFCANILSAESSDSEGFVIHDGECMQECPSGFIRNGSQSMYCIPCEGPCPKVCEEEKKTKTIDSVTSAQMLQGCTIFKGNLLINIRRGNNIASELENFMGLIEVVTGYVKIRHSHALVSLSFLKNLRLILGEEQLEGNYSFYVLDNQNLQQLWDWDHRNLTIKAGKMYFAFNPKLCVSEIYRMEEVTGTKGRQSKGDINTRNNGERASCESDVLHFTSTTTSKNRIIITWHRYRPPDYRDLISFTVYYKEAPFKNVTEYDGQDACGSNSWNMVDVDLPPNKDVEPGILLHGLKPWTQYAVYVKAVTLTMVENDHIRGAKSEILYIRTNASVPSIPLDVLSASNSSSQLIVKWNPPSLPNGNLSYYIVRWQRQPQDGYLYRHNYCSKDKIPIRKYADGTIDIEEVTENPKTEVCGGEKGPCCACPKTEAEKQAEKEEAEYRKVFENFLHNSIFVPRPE
T1 sequence (P08069 741-1367 partner limits assumed): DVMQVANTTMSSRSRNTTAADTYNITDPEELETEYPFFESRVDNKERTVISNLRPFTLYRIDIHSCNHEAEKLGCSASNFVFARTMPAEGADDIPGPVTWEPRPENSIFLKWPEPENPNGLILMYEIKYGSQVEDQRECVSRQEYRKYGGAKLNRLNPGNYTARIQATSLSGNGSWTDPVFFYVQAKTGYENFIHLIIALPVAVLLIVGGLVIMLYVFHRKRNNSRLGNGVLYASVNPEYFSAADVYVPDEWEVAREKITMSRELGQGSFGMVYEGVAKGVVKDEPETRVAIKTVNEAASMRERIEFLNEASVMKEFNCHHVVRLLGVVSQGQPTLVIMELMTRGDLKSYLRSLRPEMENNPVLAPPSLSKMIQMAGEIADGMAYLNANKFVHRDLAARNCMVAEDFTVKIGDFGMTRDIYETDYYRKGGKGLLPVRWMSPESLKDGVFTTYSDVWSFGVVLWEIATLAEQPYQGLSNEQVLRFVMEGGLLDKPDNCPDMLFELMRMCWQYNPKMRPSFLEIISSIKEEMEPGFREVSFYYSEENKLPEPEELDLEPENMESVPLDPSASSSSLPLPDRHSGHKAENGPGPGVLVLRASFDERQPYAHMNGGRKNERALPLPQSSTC
Method: Theory of assay: Radioactive ^125I labeled insulin-like growth factor-1 (IGF-1) competes with a test ligand for binding to type 1 IGF receptors that are abundant on MCF7 cells (a human breast cancer cell line) in vitro.
MCF7 cell media: 500 mL MEM, 0.01 mg/mL bovine insulin; 5 mL sodium pyruvate, 5 mL non-essential amino acids, 10 mL sodium bicarbonate, 10 mL fetal bovine serum, 5 mL penicillin/streptomycin.
MCF7 cells (ATCC HTB-22) were plated at 20,000 cells per well in a volume of 0.5 mL/well in a 48-well tissue culture plate (flat bottom with low evaporation lid) and placed in a cell culture incubator set at 37° C. with 5% CO2. After 2-3 days in culture the plates were washed 2× with 0.5 mL per well of cold binding assay buffer (100 mM Hepes-NaOH, pH 7.2; 120 mM NaCl; 5 mM KCl; 1.2 mM MgSO4; 0.1% BSA). After the final wash, 0.5 mL of binding assay buffer was added to each well and the plates are placed at 4° C. for 2 to 6 hours.
Test ligands were prepared at a concentration of 10 micromolar (long-R3-IGF) or 20 micromolar (765IGF and IGF-MTX) in 5 mM HCl in a volume of 200 ul. […] For long-R3, the lyophilized commercial material is dissolved at 1.0 mg/ml in 10 mM HCl and this is diluted to a concentration of 91 ug/ml for a 10 uM solution. […]
The plates were then incubated overnight at 4° C. […] Cells were lysed with 0.5 mL 300 mM NaOH, 1% SDS and the lysates were counted on a gamma counter.

Sequence of IGF receptors (P08069 31-736 limits assumed): as the sequence (P08069 31-736 limits assumed) above
Sequence of IGF receptors (P08069 741-1367 partner limits assumed): as the sequence (P08069 741-1367 partner limits assumed) above

Kd (IGF receptors): ~1 nM | Kd [2]: ~3 nM
B1: LR3IGF: commercial Long-R3-IGF, variant of IGF-1, SEQ ID NO: 5 (protein)
chain: MFPAMPLSSLFVNGPRTLCGALVDALQFVCGDRGFYFNKPTGYGSSSRRAPQTGIVDECCFRSCDLRRLEMYCAPLKPAKSEA
binding affinity to the soluble IGF binding proteins [1]: reduced binding affinity
